Where no end group is shown, it is not given here.
Key:
Set1 = Set1 (UniProt P38827); assay: biotinylated peptide pull-down, immunoblot; conditions: reference: unmodified H3 (1-23) peptide; sites T11
Dot1 [1] = target: Dot1 (UniProt Q04089); assay: biotinylated peptide pull-down, immunoblot; conditions: reference: unmodified H3 (1-23) peptide; sites T11
Set2 = Set2 (UniProt P46995); assay: biotinylated peptide pull-down, immunoblot; conditions: reference: unmodified H3 (1-23) peptide; sites T11
Dot1 [2] = target: Dot1 (UniProt Q04089); assay: Dot1-FLAG IP, anti-H3/H4 blot of nucleosomes; conditions: reference: wild type H3; sites T11
Dot1 [3] = target: Dot1 (UniProt Q04089); assay: H3-FLAG nucleosome IP, Dot1 blot; conditions: reference: WT H3-FLAG; sites T11
[4] = target: T1, purified endogenous SIR complex (Sir2-FLAG) (S. cerevisiae (endogenous in yeast), UniProt P06700 1-562; P06701 1-978; P11978 1-1358); assay: pull-down; 1.0 µg biotinylated histone peptide incubated with 1 µg purified SIR complex (Sir2-FLAG) in 50 mM Tris-HCl pH 7.5, 250 mM NaCl, 0.1% NP-40, overnight at 4 °C; Streptavidin beads; immunoblot; conditions: both partners purified
T1 construct: NAD-dependent histone deacetylase Sir2, S. cerevisiae; Sir3, S. cerevisiae; named as a subunit of the SIR complex in the introduction; Sir4, S. cerevisiae; also called silent information regulator complex; not shown: FLAG, C-terminal, kept; copies: + +
T1 sequence (P06700 whole entry, chain 1 of 3): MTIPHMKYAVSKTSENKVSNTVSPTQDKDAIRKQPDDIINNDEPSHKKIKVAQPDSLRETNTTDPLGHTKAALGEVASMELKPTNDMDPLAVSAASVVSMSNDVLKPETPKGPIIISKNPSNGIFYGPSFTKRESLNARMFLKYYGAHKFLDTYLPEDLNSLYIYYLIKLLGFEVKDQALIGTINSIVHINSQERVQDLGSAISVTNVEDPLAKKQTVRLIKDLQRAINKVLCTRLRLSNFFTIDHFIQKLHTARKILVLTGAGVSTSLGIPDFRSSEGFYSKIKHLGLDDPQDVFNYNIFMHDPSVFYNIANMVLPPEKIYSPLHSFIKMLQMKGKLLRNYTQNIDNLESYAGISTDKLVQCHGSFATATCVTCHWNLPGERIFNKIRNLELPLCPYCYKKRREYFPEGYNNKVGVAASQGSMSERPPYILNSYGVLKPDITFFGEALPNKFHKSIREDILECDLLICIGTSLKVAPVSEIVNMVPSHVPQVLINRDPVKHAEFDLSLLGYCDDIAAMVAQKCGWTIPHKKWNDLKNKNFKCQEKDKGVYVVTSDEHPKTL
T1 sequence (P06701 whole entry, chain 2 of 3): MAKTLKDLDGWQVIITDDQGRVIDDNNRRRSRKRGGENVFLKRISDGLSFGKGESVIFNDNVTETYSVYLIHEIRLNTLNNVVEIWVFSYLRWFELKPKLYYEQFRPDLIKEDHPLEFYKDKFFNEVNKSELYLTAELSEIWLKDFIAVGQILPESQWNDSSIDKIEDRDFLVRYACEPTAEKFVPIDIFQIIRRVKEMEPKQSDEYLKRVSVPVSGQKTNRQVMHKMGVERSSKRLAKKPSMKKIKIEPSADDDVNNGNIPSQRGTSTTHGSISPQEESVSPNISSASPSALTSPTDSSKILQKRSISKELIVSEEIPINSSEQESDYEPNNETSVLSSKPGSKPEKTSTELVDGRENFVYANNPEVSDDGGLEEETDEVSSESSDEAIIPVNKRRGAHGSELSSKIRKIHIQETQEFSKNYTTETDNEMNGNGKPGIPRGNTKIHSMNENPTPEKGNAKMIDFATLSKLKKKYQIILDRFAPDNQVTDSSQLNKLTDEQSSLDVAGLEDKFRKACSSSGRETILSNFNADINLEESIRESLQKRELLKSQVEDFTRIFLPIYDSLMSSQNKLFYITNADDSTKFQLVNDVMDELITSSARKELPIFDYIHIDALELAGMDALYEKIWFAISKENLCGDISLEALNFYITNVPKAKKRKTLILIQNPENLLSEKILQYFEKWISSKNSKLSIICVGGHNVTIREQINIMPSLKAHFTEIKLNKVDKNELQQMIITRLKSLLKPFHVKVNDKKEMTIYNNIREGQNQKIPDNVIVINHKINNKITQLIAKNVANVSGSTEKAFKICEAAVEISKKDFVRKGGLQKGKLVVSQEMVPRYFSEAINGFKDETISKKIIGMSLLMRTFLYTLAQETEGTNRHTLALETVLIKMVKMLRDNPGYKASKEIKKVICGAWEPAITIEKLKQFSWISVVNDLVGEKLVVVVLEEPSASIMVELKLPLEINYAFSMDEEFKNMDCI
T1 sequence (P11978 whole entry, chain 3 of 3): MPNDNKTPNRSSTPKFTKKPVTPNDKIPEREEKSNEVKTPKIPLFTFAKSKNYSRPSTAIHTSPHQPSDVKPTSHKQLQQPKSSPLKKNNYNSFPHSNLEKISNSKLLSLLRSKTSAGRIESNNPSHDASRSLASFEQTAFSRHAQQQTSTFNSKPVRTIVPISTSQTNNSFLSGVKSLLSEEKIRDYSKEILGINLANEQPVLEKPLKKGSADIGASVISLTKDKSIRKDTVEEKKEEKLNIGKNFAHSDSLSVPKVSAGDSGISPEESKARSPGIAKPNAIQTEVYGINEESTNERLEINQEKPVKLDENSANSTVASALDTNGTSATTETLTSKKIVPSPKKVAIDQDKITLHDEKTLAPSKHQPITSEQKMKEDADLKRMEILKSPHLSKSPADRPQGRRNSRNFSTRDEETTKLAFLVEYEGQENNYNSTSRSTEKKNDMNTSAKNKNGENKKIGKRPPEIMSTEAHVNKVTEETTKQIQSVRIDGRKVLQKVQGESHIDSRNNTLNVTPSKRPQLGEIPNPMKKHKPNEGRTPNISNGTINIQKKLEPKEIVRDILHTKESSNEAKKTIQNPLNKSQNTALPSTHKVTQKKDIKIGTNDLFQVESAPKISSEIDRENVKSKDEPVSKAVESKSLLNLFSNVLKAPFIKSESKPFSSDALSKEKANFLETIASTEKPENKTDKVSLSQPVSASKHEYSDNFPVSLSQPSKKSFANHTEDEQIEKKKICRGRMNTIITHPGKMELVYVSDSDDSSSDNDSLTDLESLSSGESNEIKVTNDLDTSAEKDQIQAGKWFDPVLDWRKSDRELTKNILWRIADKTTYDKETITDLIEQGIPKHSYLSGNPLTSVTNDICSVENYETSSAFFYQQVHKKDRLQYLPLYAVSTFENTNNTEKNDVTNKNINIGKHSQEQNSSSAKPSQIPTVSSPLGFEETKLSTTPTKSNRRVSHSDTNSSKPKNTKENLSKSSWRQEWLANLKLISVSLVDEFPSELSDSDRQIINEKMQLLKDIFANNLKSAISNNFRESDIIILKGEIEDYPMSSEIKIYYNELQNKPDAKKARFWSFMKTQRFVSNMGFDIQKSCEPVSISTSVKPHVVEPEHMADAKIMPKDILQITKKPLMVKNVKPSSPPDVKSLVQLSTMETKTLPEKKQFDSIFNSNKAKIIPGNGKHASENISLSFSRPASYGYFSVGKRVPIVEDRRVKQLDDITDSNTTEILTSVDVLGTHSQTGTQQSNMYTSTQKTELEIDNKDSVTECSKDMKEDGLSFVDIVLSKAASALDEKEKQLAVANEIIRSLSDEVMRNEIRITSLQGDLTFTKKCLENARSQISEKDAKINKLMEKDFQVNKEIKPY

## histone H3 1-23 (from UniProt P61830) H3pT11 (1-23) peptide
Set1
  binding against the reference: same
Dot1 [1]
  binding against the reference: weaker
Set2
  binding against the reference: same

## histone H3 (from UniProt P61830) H3T11A
Dot1 [2]
  binding against the reference: stronger

## histone H3 (from UniProt P61830) H3T11A-FLAG
Dot1 [3]
  binding against the reference: stronger

B1: Unmodified H3 (72–85) peptide (peptide)
peptide: REIAQDFKTDLRFQ
modifications: also: biotin (position not given here)
notes: histone H3 residues 72-85; also called unmodified H3 peptide; source: synthetic peptide (biotinylated histone peptide)
[4]
  binding result: binds

Source: paper PMC9726891, “SESAME-catalyzed H3T11 phosphorylation inhibits Dot1-catalyzed H3K79me3 to regulate autophagy and telomere silencing” (Nature Communications, 2022)
